Results taken from the MegaScale stability set (Tsuboyama et al. 2023).

B1: 6YSE (parent)
chain: HERALMVNRLQKLTRMLRVHPDPKWKQEQQELIKRLK

Variants of: B1
Assay: folding stability dG (cDNA display proteolysis); higher = more stable
Conditions: PBS, room temperature

Folding stability dG [kcal/mol] of substitutions, site by site:
L5: W 2.06; F 1.19; M 1.83; I 1.41; K 1.6; H 1.61; Q 1.61; G 1.16
N8: D 1.45; F 1.21; L 1.75; E 1.56; G 1.23; K 2.4; H 1.47; I 1.84
M6: N -0.861; H 0.07; Y -0.185; Q 0.35; K -0.045; G -0.19; I 1.8; D 0.383; V 0.718; L 1.46; A 0.574; R 0.36; F -0.384; T 0.188; E 0.023; W 0.832; S 0.112
A4: P 0.222; T 1.46; N 1.31; M 1.66; D 1.35; G 0.783; V 1.23; K 1.68; W 1.7; L 1.49; I 1.53; Y 1.4; E 1.35; S 1.06; H 1.35; Q 1.63; F 1.12
R3: G 0.193; Q 0.786; Y 1.69; L 1.61; D 0.418; S 0.487; A 0.434; V 1.34; I 1.63; K 1.03; W 1.59; E 0.651; T 1.06; N 0.899; H 1.18; F 1.66; M 0.994
E2: W 1.65; N 1.22; Y 1.32; S 1.09; Q 1.25; D 1.16; P 0.758; V 1.23; K 1.15; G 0.782; L 1.59; R 0.9; H 1.05; F 1.27; A 1.14; I 1.4; M 1.46
